Laboratory results published in patent US11844843 (DYNE THERAPEUTICS, dated 2023).

Tests used:
[1] = target: T1, recombinant human TfR1 (transferrin receptor protein 1) (human, UniProt P02786 89-760); assay: Biacore, d25; TfR1 species not stated
T1 construct: Recombinant protein in SPR and ELISA; they were assigned to this molecule; also called hTfR1; huTfR1

[2] = target: T1, recombinant human TfR1 (transferrin …); assay: Table 14, unconjugated Fab, d9 (after 9 days at 40 C); method not named
[3] = target: T2, recombinant cynomolgus monkey (Macaca fascicularis) TfR1 (cynomolgus monkey (Macaca fascicularis), UniProt Q5RDH6 87-760 (Pongo abelii entry), limits assumed); assay: as above
T2 construct: Recombinant protein; also called cTfR1; cyTfR1
T2 chain: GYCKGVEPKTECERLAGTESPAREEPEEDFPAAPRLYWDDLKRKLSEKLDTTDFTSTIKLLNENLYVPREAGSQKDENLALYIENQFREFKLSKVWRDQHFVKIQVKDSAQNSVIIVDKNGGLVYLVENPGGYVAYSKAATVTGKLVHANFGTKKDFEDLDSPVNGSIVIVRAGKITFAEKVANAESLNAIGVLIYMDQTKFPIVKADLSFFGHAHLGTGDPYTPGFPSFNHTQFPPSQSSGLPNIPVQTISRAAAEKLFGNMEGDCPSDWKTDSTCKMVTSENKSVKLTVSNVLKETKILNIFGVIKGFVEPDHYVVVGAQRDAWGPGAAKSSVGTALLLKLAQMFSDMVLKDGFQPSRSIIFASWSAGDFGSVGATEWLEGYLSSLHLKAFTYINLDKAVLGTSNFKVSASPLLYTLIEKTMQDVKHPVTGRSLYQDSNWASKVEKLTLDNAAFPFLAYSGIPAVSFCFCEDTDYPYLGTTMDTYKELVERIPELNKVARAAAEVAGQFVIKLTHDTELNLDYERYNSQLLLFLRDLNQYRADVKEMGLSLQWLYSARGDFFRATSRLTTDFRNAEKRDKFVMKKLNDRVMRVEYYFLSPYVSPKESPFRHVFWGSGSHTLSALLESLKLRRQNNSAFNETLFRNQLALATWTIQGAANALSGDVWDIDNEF

[4] = target: T1, recombinant human TfR1 (transferrin …); assay: ELISA, recombinant TfR1 coated, unconjugated Fab (row 'Fab binding affinity ELISA')
[5] = target: T2, recombinant cynomolgus monkey (Macaca …); assay: as above
[6] = target: T1, recombinant human TfR1 (transferrin …); assay: ELISA on plate-coated recombinant hTfR1, fluorescent anti-(H+L) IgG-A488 detection, % normalized RFUs
Experimental: (§1) To measure binding of humanized anti-TfR antibodies to TfR1, ELISAs were conducted. High binding, black, flat bottom, 96 well plates (Corning #3925) were first coated with 100 μL/well of recombinant huTfR1 at 1 μg/mL in PBS and incubated at 4° C. overnight. Wells were emptied and residual liquid was removed. Blocking was conducted by adding 200 μL of 1% BSA (w/w) in PBS to each well. Blocking was allowed to proceed for 2 hours at room temperature on a shaker at 30) rpm. After blocking, liquid was removed and wells were washed three times with 300 μL of TBST. Anti-TfR1 antibodies were then added in 0.5% BSA/TBST in triplicate in an 8 point serial dilution (dilution range 5 μg/mL-5 ng/mL). A positive control and isotype controls were also included on the ELISA plate. The plate was incubated at room temperature on an orbital shaker for 60 minutes at 300 rpm, and the plate was washed three times with 300 μL of TBST. Anti-(H+L)IgG-A488 (1:500) (Invitrogen #A11013) was diluted in 0.5% BSA in TBST, and 100 μL was added to each well. The plate was then allowed to incubate at room temperature for 60 minutes at 300 rpm on orbital shaker. The liquid was removed and the plate was washed four times with 300 μL of TBST. […] Data was recorded and analyzed for $EC50$. […]

[7] = target: T2, recombinant cynomolgus monkey (Macaca …); assay: ELISA on plate-coated recombinant cTfR1, fluorescent anti-(H+L) IgG-A488 detection, % normalized RFUs
Experimental: as §1

B1: humanized anti-TfR Fab 3M12 VH4/Vκ3 (Fab, V domains shown)
VH: QVQLQESGPGLVKPSQTLSLTCTVTGYSITSGYYWNWIRQPPGKGLEWIGYITFDGANNYNPSLKNRVSISRDTSKNQFSLKLSSVTAEDTATYYCTRSSYDYDVLDYWGQGTTVTVSS
VL: DIQMTQSPSSLSASVGDRVTITCRASQDISNFLNWYQQKPGQPVKLLIYYTSRLHSGVPSRFSGSGSGTDFTLTISSLQPEDFATYYCQQGHTLPYTFGQGTKLEIKR
notes: also called 3M12 (VH4/Vk3); anti-TfR Fab 3M12 VH4/Vk3
Kd [1]: 0.486 nM
Binding affinity [2]: 0.28 nM
Binding affinity [3]: 16.4 nM
EC50 [4]: 0.5 nM
EC50 [5]: 2.2 nM
EC50 [6]: 2.1 nM
EC50 [7]: 9.9 nM
